{"source": "patent US20260327291", "about": "(published 2026)", "binders": {"B1": {"name": "WT anti-N antibody (antibody, V domains shown)", "VH": "QIQLVQSGPELKKPGETVKISCKASGFTFTDYAMNWVKQAPGKGLKWMGWLNTYSGEPTYAEDFKGRFAFSLETSASTAYLQINNLKNEDTATYFCARTAILRSYFDYWGQGTTLTVSS", "VL": "DIVMTQSHKFMSTSVGDRVSITCKASEDLSTALAWCQQKPGQSPKLLIYWGSTRHSGVPDRFTGIRSGTDYTLTISSVQAEDLALYYCQQHWSTPLTFGAGTKLELKR"}}, "molecular_target": "2019-nCoV N protein (SARS-CoV-2, UniProt P0DTC9)", "test": "BLI"}
{"binder": "B1", "values": [{"measurement": "Kd", "value": 7.25, "unit": "nM"}]}
